Data reported in PMC2680271.

How the values were obtained:
[1] = test system: KorA WT (IncP-1 plasmid (expressed in E. coli)); test: EMSA
[2] = test system: KorA Y84A (IncP-1 plasmid (expressed in E. coli)); test: EMSA

korAp fragment (220 bp, EcoRI-cut pSTM12)
K half [1]: 300 nM | K half [2]: 200 nM
